This experiment deals with T1, syntaxin 1a (syx(183–288)) (Rattus norvegicus, UniProt P32851 183-288).
T1 construct: also called N-terminally truncated variant of syntaxin; source: in n-octyl β-D-glucopyranoside
The experiment in a line: co-purification by ion exchange chromatography (Mono Q); purified monomers mixed overnight at 4 °C, complex purified the next day on a Mono Q column. The settings on record: both partners purified.

T1 sequence (P32851 183-288): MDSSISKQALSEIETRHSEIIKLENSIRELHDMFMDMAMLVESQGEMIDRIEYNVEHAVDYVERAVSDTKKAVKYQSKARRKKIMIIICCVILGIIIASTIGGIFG

B1: syb(49–96), C-terminal fragment of synaptobrevin (domain or fragment, Rattus norvegicus, UniProt P63045 49-96, looked up)
chain: NVDKVLERDQKLSELDDRADALQAGASQFETSAAKLKRKYWWKNLKMM
notes: synaptobrevin 2 (syb), Rattus norvegicus, residues 49–96; also called synaptobrevin(49–96)
Regarding B1, the binding result was “binds”.

(Values after PMC5986196, “Arrest of trans-SNARE zippering uncovers loosely and tightly docked intermediates in membrane fusion” (The Journal of Biological Chemistry, 2018).)
